Data: patent US20230091471A1 (APELLIS PHARMACEUTICALS, published 2023)
Blank lines part the entries; values can stand above or below the binder they belong to.

Key:
[1] = target: T1, human complement component C3 (human, UniProt P01024 23-1663); assay: cell-based or functional assay
[2] = target: T1, human complement component C3; assay: cell-based or functional assay; remark: listed apart in the source

B1: CA28-AEEAc-Lys(mPEG40K-hexanoyl) (peptide)
peptide: ICVWQDWGAHRCTK
modifications: not fully specified; N-terminal acetyl; 1-methyl-Trp at 4; disulfide Cys2-Cys12; AEEAc after Thr13; Lys15 side chain coupled to linear 40 kD mPEG (NOF SUNBRIGHT ME-400HS); C-terminal amide
IC50 (read off the curve); classical pathway C3b deposition ELISA, human plasma [1]: ~600 nM

B2: CA28-AEEAc-Lys(mPEG40K-carbonyl) (peptide)
peptide: ICVWQDWGAHRCTK
modifications: not fully specified; N-terminal acetyl; 1-methyl-Trp at 4; disulfide Cys2-Cys12; AEEAc after Thr13; Lys15 side chain coupled to linear 40 kD mPEG (NOF SUNBRIGHT ME-400TS); C-terminal amide
IC50 (read off the curve); classical pathway C3b deposition ELISA, human plasma [1]: ~600 nM

B4: CA28-2GS-BF (peptide)
peptide: ICVWQDWGAHRCTK
modifications: not fully specified; N-terminal acetyl; 1-methyl-Trp at 4; disulfide Cys2-Cys12; AEEAc after Thr13; Lys side chain coupled to one end of a bifunctional linear 40 kD PEG of the GS type (NHS-OCO(CH2)3COO-PEG-CO(CH2)3COO-NHS); C-terminal …
Q1 (Type III cells with high C3d deposition) % Parent, modified Ham's assay, 50 ug/ml [2]: 0.01% | Q2 (Type I and II cells with high C3d deposition) % Parent, modified Ham's assay, 50 ug/ml [2]: 0.01% | Q3 (Type III cells without significant C3d deposition) % Parent, modified Ham's assay, 50 ug/ml [2]: 61.5% | Q4 (Type I and II cells without significant C3d deposition) % Parent, modified Ham's assay, 50 ug/ml [2]: 38.5%

The remaining lines, values ahead:

IC50 (read off the curve); classical pathway C3b deposition ELISA, human plasma [1]: ~600 nM
B3: CA28-AEEAc-Lys(mPEG40K-succinyl) (peptide)
peptide: ICVWQDWGAHRCTK
modifications: not fully specified; N-terminal acetyl; 1-methyl-Trp at 4; disulfide Cys2-Cys12; AEEAc after Thr13; Lys15 side chain coupled to linear 40 kD mPEG (NOF SUNBRIGHT ME-400CS); C-terminal amide

IC50 (read off the curve); classical pathway C3b deposition ELISA, human plasma [1]: ~600 nM
B5: CA28-AEEAc-Lys-(PEG40k) (peptide)
peptide: ICVWQDWGAHRCTK
modifications: not fully specified; N-terminal acetyl; 1-methyl-Trp at 4; disulfide Cys2-Cys12; AEEAc after Thr13; Lys15 side chain coupled to linear 40 kD mPEG (NOF SUNBRIGHT ME-400GS); C-terminal amide
